Laboratory results from paper PMC13185157 (ACS Synthetic Biology, 2026).

Molecular target: T1, GFP (Aequorea victoria GFP, engineered …)
T1 construct: green fluorescent protein expressed from pYTK001; also called green fluorescent protein; source: E. coli DH5α, constitutive expression from pYTK001, in lysate
Test: flow cytometry on cells; about 1 x 10^6 yeast cells displaying the α-GFP Nb in 20 mM HEPES pH 7.5, 150 mM NaCl, 0.1% BSA, 5 mM maltose; GFP from a bacterial cell lysate (20–30 μL); 15 min at 4 °C; GFP fluorescence, percent of positive cells
Conditions: partners not purified

T1 sequence (P42212 other isoform, or with tags, fused parts or gaps): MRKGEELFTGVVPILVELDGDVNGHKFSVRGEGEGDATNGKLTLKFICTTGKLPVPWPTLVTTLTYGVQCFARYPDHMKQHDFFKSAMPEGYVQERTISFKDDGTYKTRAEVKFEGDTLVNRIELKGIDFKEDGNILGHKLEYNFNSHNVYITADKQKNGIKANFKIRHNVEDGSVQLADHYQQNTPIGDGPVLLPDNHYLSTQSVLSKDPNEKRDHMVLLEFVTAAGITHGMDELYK

| Binder | percent of cells labelled with GFP [%] |
| --- | --- |
| α-GFP Nb displayed as C-terminal fusion to HA-tagged Aga2 (VHH, anti-GFP nanobody, as in m2; Held on the cell by coexpressed Aga1; also called anti-GFP Nanobody; not shown: HA, internal (after amino acid 18 of Aga2p, after the signal peptide), kept; Aga2p anchor (YGL032C), N-terminal, kept) VHH: QVQLVESGGALVQPGGSLRLSCAASGFPVNRYSMRWYRQAPGKEREWVAGMSSAGDRSSYEDSVKGRFTISRDDARNTVYLQMNSLKPEDTAVYYCNVNVGFEYWGQGTQVTVSS | > 60 |
| α-GFP Nb displayed as N-terminal fusion to MYC-tagged Aga1ΔN181 (VHH, anti-GFP nanobody, as in m2; also called anti-GFP Nanobody; not shown: MYC, internal (between nanobody and anchor), kept; Aga1ΔN181 anchor (Aga1p YNR044W amino acids 182–544), C-terminal, kept) VHH: QVQLVESGGALVQPGGSLRLSCAASGFPVNRYSMRWYRQAPGKEREWVAGMSSAGDRSSYEDSVKGRFTISRDDARNTVYLQMNSLKPEDTAVYYCNVNVGFEYWGQGTQVTVSS | > 80 |
| α-GFP Nb displayed as C-terminal fusion to 2xFLAG-tagged Aga2 (VHH, anti-GFP nanobody, as in m2; Held on the cell by coexpressed Aga1; also called anti-GFP Nanobody; not shown: 2xFLAG, internal (after amino acid 18 of Aga2p, after the signal peptide), kept; Aga2p anchor (YGL032C), N-terminal, kept) VHH: QVQLVESGGALVQPGGSLRLSCAASGFPVNRYSMRWYRQAPGKEREWVAGMSSAGDRSSYEDSVKGRFTISRDDARNTVYLQMNSLKPEDTAVYYCNVNVGFEYWGQGTQVTVSS | > 60 |
| α-GFP Nb displayed as N-terminal fusion to 2xFLAG-tagged Aga1ΔN181 (VHH, anti-GFP nanobody, as in m2; also called anti-GFP Nanobody; not shown: 2xFLAG, internal (between nanobody and anchor), kept; Aga1ΔN181 anchor (Aga1p YNR044W amino acids 182–544), C-terminal, kept) VHH: QVQLVESGGALVQPGGSLRLSCAASGFPVNRYSMRWYRQAPGKEREWVAGMSSAGDRSSYEDSVKGRFTISRDDARNTVYLQMNSLKPEDTAVYYCNVNVGFEYWGQGTQVTVSS | > 80 |

Results, then the binder that gave them:

| percent of cells labelled with GFP [%] | Binder |
| --- | --- |
| > 80 | α-GFP Nb displayed as N-terminal fusion to HA-tagged Aga1ΔN181 (VHH, anti-GFP nanobody; Plasmid details in File S1; also called anti-GFP Nanobody; not shown: HA (of the anchor part), internal (between nanobody and anchor), kept; Aga1ΔN181 anchor (Aga1p YNR044W amino acids 182–544), C-terminal, kept) VHH: QVQLVESGGALVQPGGSLRLSCAASGFPVNRYSMRWYRQAPGKEREWVAGMSSAGDRSSYEDSVKGRFTISRDDARNTVYLQMNSLKPEDTAVYYCNVNVGFEYWGQGTQVTVSS |
| > 60 | α-GFP Nb displayed as C-terminal fusion to untagged Aga2 (VHH, anti-GFP nanobody, as in m2; also called anti-GFP Nanobody; not shown: Aga2p anchor (YGL032C), N-terminal, kept) VHH: QVQLVESGGALVQPGGSLRLSCAASGFPVNRYSMRWYRQAPGKEREWVAGMSSAGDRSSYEDSVKGRFTISRDDARNTVYLQMNSLKPEDTAVYYCNVNVGFEYWGQGTQVTVSS |
| > 60 | α-GFP Nb displayed as C-terminal fusion to MYC-tagged Aga2 (VHH, anti-GFP nanobody, as in m2; also called anti-GFP Nanobody; not shown: Aga2p anchor (YGL032C), N-terminal, kept) VHH: QVQLVESGGALVQPGGSLRLSCAASGFPVNRYSMRWYRQAPGKEREWVAGMSSAGDRSSYEDSVKGRFTISRDDARNTVYLQMNSLKPEDTAVYYCNVNVGFEYWGQGTQVTVSS |
